In patent US9382546:

System: recombinant overlapping peptides (ROP) fusion protein composed of 20 overlapping peptides covering HIV Nef (Lai) interspersed with Factor Xa sites (IEGR)

**Q.** For “protease Factor Xa (New England Biolabs)”, which “protease digestion, SDS page and mass spectrometry” value is on record?
**A.** the ROP protein was cut by Factor Xa into overlapping peptides (ROP peptides) as shown in the mass spectrometry
